The target in this test is His-tagged recombinant full-length HCV NS3 protein (aa 1027 to aa 1657 of the HCV polyprotein, 1b genotype), purified from E. coli (hepatitis C virus, 1b genotype). The test can be described thus: cell-based or functional assay.

For one molecule, inhibition of NTPase activity and inhibition of helicase activity results are on record in patent US7314919.

B1: Human recombinant anti-NS3 Fab (HFab-aNS3) (Fab, V domains shown)
VH: LEESGGGLVKPGGSLRLSCVASGLTFSRYNMQWVRQAPGKGLEWVASISTSGVYIYYADSVTGRFTISRDNSKNSLYLQMNSLGAEDTAVYYCARDLTFLCGGDCLQPWGQG
VL: AELTQSPSSLSASVGDRVTITCRASQGISRYLAWFQQRPGKAPKSLIYAASHLQSGVPSRFSASGSGTEFTLSISSLQPEDFATYYCQQYDTYPYTFGQGTKLEIKR
As to B1, the inhibition of NTPase activity stood at 15% and the inhibition of helicase activity was 54%.
